One assay relates to F. graminearum. The format is cell-based, Fusarium graminearum. To be noted: γ-core motif variants.
For another assay, the system named is F. graminearum PH-1. The format is cell-based, Fusarium graminearum. To be noted: γ-core motif variants.

B1: MtDef5FL1_V1 (other)
chain: KLCQAASTTWSGPCLNTGNCKRQCINVEHATFGACAAQGFGFACFCYKKCAPKKVEPKLCEAASKTWSGPCLISGNCKRQCINVEHATSGACAAQGIGFACFCKKKC
notes: Alanine variant expressed in P. pastoris; also called MtDef5FL1 γ-core motif variant V1
For the molecule B1, in the assay with F. graminearum, the “ability to permeabilize the plasma membrane (SG uptake) compared with wild-type MtDef5FL1” value is “lost its ability to permeabilize the fungal plasma membrane almost completely”. The “reduction in antifungal activity against F. graminearum relative to wild-type MtDef5FL1” value in the assay on F. graminearum PH-1 is 4 fold.
